The test system of series [1] is MA3 (DNA, aptamer) AACCGCCCAAATCCCTAAGAGTCGGACTGCAACCTATGCTATCGTTGATGTCTGTCCAAGCAACACAGACACACTACACACGCACA
In words: fluorescence quenching of doxorubicin. The settings on record: aqueous solution, 1 h; Dox 3 nM as printed; intercalation; quenching complete at aptamer/Dox 0.1.

Series [2] concerns the target T1, MUC1 peptide1 (APDTRPAPG epitope) (UniProt P15941).
T1 chain: APDTRPAPG
In words: flow cytometry, bead binding; Hanks buffer (binding buffer), 37 C, 30 min, 200 ul; aptamer DNA heated 95 C 5 min then cooled to 0 C (stated for SELEX pool and Dox loading); pH not stated. To be noted: tags: EDC-coupled to carboxylated magnetic beads; label: 5'-FITC. On the technique in general: In flow cytometry, cells or beads pass a laser one at a time.

Series [3] has as its target T2, MUC1 peptide2 (entire tandem repeat) (UniProt P15941).
T2 chain: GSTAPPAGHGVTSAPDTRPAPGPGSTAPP
Described as above. The settings on record: tags: EDC-coupled to magnetic beads; label: 5'-FITC.

The source of these data is article PMC3284512.

Broadly, the Kd is the constant that tells how readily two partners part at equilibrium. Low values mean tighter binding, high ones weaker binding.

As for `COc1cccc2c1C(=O)c1c(O)c3c(c(O)c1C2=O)C[C@@](O)(C(=O)CO)C[C@@H]3O[C@H]1C[C@H](N)[C@H](O)[C@H](C)O1`, in series [1], the binding entry is “yes”.

B1: MA3 (ssDNA)
DNA: AACCGCCCAAATCCCTAAGAGTCGGACTGCAACCTATGCTATCGTTGATGTCTGTCCAAGCAACACAGACACACTACACACGCACA
Molecule B1 registered a Kd in series [2] of 38.3 nM. In addition, in series [3], the binding result was “binds”.
